The source of these data is article PMC6480404.

Experiment [1] concerns the target Streptococcus pyogenes Cas9 (Streptococcus pyogenes) (UniProt Q99ZW2). Description: native gel or EMSA. In general terms: Mobility shift assays separate free from complexed probe on a gel.
For experiment [2] the target is unchanged. Kind of experiment: cryo-EM structure.

With AcrIIA2 (natural protein), in experiment [1], the dissociation constant (Kd) came to 0.512 µM. In experiment [2], this substance registered a stoichiometry N of 1.

One may read the Kd as the concentration at which binding is half-saturated. Read a low Kd as higher affinity. As usually defined, the stoichiometry N is the number of molecules, sites or subunits per partner or assembly.
